Tests used:
[1] = tested on: AFAs of the sera from patients suffering from RA; assay: Immunoblot of citrullinated and noncitrullinated fil-gst with individual sera and purified AFAs; assay type: binding, human; details: citrullinated fil-gst; purified AFAs 4 μg/ml
Experimental: In a first series of experiments (FIG. 4a), the reactivity of noncitrullinated fil-gst (fil-gst alone, 30 minutes at 50° C.) and fil-gst citrullinated with PAD 30 minutes at 50° C. is compared with human sera composed of: • sera from normal persons: T(2) and T(3) • sera from patients suffering from RA having high AFA titers which are detected by immunotransfer on acido-neutral variants of human filaggrin, and by indirect immunofluorescence on cryosections of rat esophagus: RA(6) and RA(8); • anti-filaggrin antibodies purified from the serum from a patient suffering from RA by affinity chromatography, on a column grafted with acido-neutral isoforms of human filaggrin: AFA.
A positive control is also carried out with the monoclonal antibody AHF2.
In a second series of experiments (FIG. 4b), the reactivity of citrullinated fil-gst is confirmed with a largest series of sera: • 4 control sera: T(4) • 4 sera from patients suffering from RA not having AFAs detected by immunotransfer or by indirect immunofluorescence: RA(4) • 9 sera from patients suffering from RA with high AFA titers (three of them (*) were also tested in the first series of experiments): RA(9) • anti-filaggrin antibodies purified by affinity chromatography, on a column grafted with the acido-neutral isoforms of filaggrin, from a pool of sera from 40 patients suffering from RA: AFA • the monoclonal antibodies AHF (1-7). […]

[2] = tested on: serum from a patient suffering from RA; assay: Dot-blot of peptides and fil-gst before and after PAD, serum from an RA patient; assay type: binding, human; details: after citrullination (PAD 30 minutes at 50° C.); 0.5 μg antigen per deposit; serum 1/2000
Experimental: These 2 peptides, as well as fil-gst, were citrullinated by the action of PAD, for 30 minutes at 50° C., in the same reaction medium as that indicated in Example 2. The specific conditions for each peptide, and for the fil-gst are the following: • peptide S-47-S (SEQ ID NO:3): 4 mU/μmol arginine • peptide S-35-R (SEQ ID NO:4): 2.7 mU/μmol arginine • fil-gst as indicated in Example 2.
The reactivity of each peptide and that of fil-gst, before and after action of the enzyme, towards the monoclonal antibody AHF4, and the serum from a patient suffering from RA, is compared by dot-blot.
The operating conditions are the following: • 0.5 μg by deposition of each antigen (peptides, fil-gst, acido-neutral variants of filaggrin (AVF)) • nitrocellulose treatment 45 minutes at 80° C., before immunodetection • RA serum used at the dilution of 1/2000; monoclonal antibody AHF4 used at a concentration of 0.2 μg/ml

B1: citrullinated fil-gst: fil-gst deiminated in vitro by rabbit muscle peptidylarginine deiminase (protein)
chain: QSESAHGRTGTSTGGRQGSHHKQARDSSRHSTSQEGQDTIHGHPGSSSGGRQGSHYEQLVDRSGHSGSHHSHTTSQGRSDASHGHSGSRSASRQTRNDEQSGDGSRHSGSRHHEASSRADSSGHSQVGQGQSEGPRTSRNWGSSFSQDSDSQGHSEDSERWSGSASRNHHGSAQEQLRDGSRHPRSHQEDRAGHGHSADSSRQSGTRHTQTSSGGQAASSHEQARSSAGERHGSHHQQSADSSRHSGIGHGQASSAVRDSGHRGYSGSQASDNEGHSEDSDTQSVSAHGQAGSHQQSHQESARGRSGETSGHSGSFLYQVSTHE
modifications: non-natural residues; left off: a dimerising Fc or GST
notes: fil-gst deiminated in vitro by rabbit muscle peptidylarginine deiminase
- reactivity of antifilaggrin autoantibodies purified by affinity chromatography from RA sera [1]: recognition of the fragments corresponding to lanes 1 to 5
- recognition by the serum from the patient suffering from RA [2]: recognizes

Reference: patent publication US6890720B1, “Antigens derived from filaggrin and their use for diagnosing rheumatoid polyarthritis” (Biomerieux, priority 1996, dated 2005)
